Assay results taken from patent US10294487B2, “Methods and compositions involving ALS variants with native substrate preference” (E I DU PONT DE NEMOURS AND COMPANY, priority 2012, dated 2019).
Positions count from the first letter of the chain named. Numbers in names are those of the source.

B1: GM-ALS_P178A_W555L: highly resistant allele (HRA) double mutant of Glycine max ALS1: P→A at 178 and W→L at 555 (protein)
chain: MAATASRTTRFSSSSSHPTFPKRITRSTLPLSHQTLTKPNHALKIKCSISKPPTAAPFTKEAPTTEPFVSRFASGEPRKGADILVEALERQGVTTVFAYPGGASMEIHQALTRSAAIRNVLPRHEQGGVFAAEGYARSSGLPGVCIATSGPGATNLVSGLADALMDSVPVVAITGQVARRMIGTDAFQETPIVEVSRSITKHNYLILDVDDIPRVVAEAFFVATSGRPGPVLIDIPKDVQQQLAVPNWDEPVNLPGYLARLPRPPAEAQLEHIVRLIMEAQKPVLYVGGGSLNSSAELRRFVELTGIPVASTLMGLGTFPIGDEYSLQMLGMHGTVYANYAVDNSDLLLAFGVRFDDRVTGKLEAFASRAKIVHIDIDSAEIGKNKQAHVSVCADLKLALKGINMILEEKGVEGKFDLGGWREEINVQKHKFPLGYKTFQDAISPQHAIEVLDELTNGDAIVSTGVGQHQMWAAQFYKYKRPRQWLTSGGLGAMGFGLPAAIGAAVANPGAVVVDIDGDGSFIMNVQELATIRVENLPVKILLLNNQHLGMVVQLEDRFYKSNRAHTYLGDPSSESEIFPNMLKFADACGIPAARVTKKEELRAAIQRMLDTPGPYLLDVIVPHQEHVLPMIPSNGSFKDVITEGDGRTRY
modifications: ALS1 variant P178A W555L
B2: GM-ALS_G102S_D357N: Glycine Max ALS1 with G→S at position 102 and D→N at position 357 (protein)
chain: B1 chain with G102S, A178P, D357N, L555W
modifications: ALS1 variant G102S D357N
B3: GM-ALS_A103T_P178S_D357E: Glycine Max ALS1 with A→T at 103, P→S at 178 and D→E at 357 (protein)
chain: B1 chain with A103T, A178S, D357E, L555W
modifications: ALS1 variant A103T P178S D357E
B4: GM-ALS_A103T_P178S: Glycine Max ALS1 with A→T at position 103 and P→S at position 178 (protein)
chain: B1 chain with A103T, A178S, L555W
modifications: ALS1 variant A103T P178S
B5: GM-ALS_G102S_P178S: Glycine Max ALS1 with G→S at position 102 and P→S at position 178 (protein)
chain: B1 chain with G102S, A178S, L555W
modifications: ALS1 variant G102S P178S
B6: GM-ALS_P178L_W555L: Glycine Max ALS1 with P→L at position 178 and W→L at position 555 (protein)
chain: B1 chain with A178L
modifications: ALS1 variant P178L W555L
B7: GM-ALS_P178A: Glycine Max ALS1 variant with a P→A mutation at position 178 (protein)
chain: B1 chain with L555W
modifications: ALS1 variant P178A
B8: GM-ALS_G102S: Glycine Max ALS1 variant with a G→S mutation at position 102 (protein)
chain: B1 chain with G102S, A178P, L555W
modifications: ALS1 variant G102S
B9: GM-ALS_P178Q: Glycine Max ALS1 variant with a P→Q mutation at position 178 (protein)
chain: B1 chain with A178Q, L555W
modifications: ALS1 variant P178Q
B10: GM-ALS_P178L: Glycine Max ALS1 variant with a P→L mutation at position 178 (protein)
chain: B1 chain with A178L, L555W
modifications: ALS1 variant P178L
B11: GM-ALS_G102S_D357E: Glycine Max ALS1 with G→S at position 102 and D→E at position 357 (protein)
chain: B1 chain with G102S, A178P, D357E, L555W
modifications: ALS1 variant G102S D357E
B12: GM-ALS_P178A_F559D: Glycine Max ALS1 with P→A at position 178 and F→D at position 559 (protein)
chain: B1 chain with L555W, F559D
modifications: ALS1 variant P178A F559D
B13: GM-ALS_P178S_D357E: Glycine Max ALS1 with P→S at position 178 and D→E at position 357 (protein)
chain: B1 chain with A178S, D357E, L555W
modifications: ALS1 variant P178S D357E
B14: GM-ALS_P178S_A186V: Glycine Max ALS1 with P→S at position 178 and A→V at position 186 (protein)
chain: B1 chain with A178S, A186V, L555W
modifications: ALS1 variant P178S A186V
B15: GM-ALS_P178S: Glycine Max ALS1 variant with a P→S mutation at position 178 (protein)
chain: B1 chain with A178S, L555W
modifications: ALS1 variant P178S
B16: GM-ALS_A103T: Glycine Max ALS1 variant with a A→T mutation at position 103 (protein)
chain: B1 chain with A103T, A178P, L555W
modifications: ALS1 variant A103T

Columns and labels:
G. max ALS1 protein [1] = experiment: Colorimetric ALS kinetic assay (Km, kcat) with pyruvate as substrate; assay type: biochemical, Glycine max
Protocol: A survey of known ALS (AcetoLactate Synthase) gene variants (Table 2) was performed, and a number of ALS variants were selected for kinetic evaluation based on breadth and strength of insensitivity to ALS-inhibitor herbicides as well as kinetic activity parameters including the ratio of substrate preferences. The selected ALS gene variants (Table 3) were generated by PCR mediated site-directed mutagenesis. Finnzymes PHUSION® DNA polymerase (Cat. No. F-530S) was used for the PCR reactions, following the instructions for recommended temperatures and cycles in the PHUSION® protocol. Some mutagenesis reactions were assisted by the use of IN-FUSION® enzyme (Clontech Cat. No. 639620) to circularize a linear plasmid with the mutation located within the 15 nucleotide overlapping ends, via recombination following the manufacturer's protocol for primer design and reaction conditions. The ALS genes, beginning with encoded amino acids SISK, (S48 to K51 in the G. max ALS1 protein (SEQ ID NO:1) corresponding to the mature protein N-terminus of the chloroplast localized enzyme), were cloned into the PMAL® E. coli expression vector (New England Biolabs) to express ALS as a fusion protein with a Maltose-Binding Protein (MBP) at the N-terminus with a thrombin site for cleavage and a His-6 tag for affinity purification. All in vitro protein characterization described in the examples was carried out with the isolated proteins after cleavage from the His-MBP fusion partner.
Km and Kcat determinations for recombinant ALS variants (with respect to pyruvate as the substrate) were performed using a colorimetric assay. ALS assays were carried out in 96-well microplates with 150 ul reaction containing 25 mM potassium phosphate, 0.2 mg/ml BSA, 15 mM MgCl2, 0.7 mM TPP, 28 uM FAD and 0-100 mM sodium pyruvate. Reactions were initiated by the addition of ALS enzyme to a final amount of 0.8 ug/well. Parameters for Km and Vmax were determined by fitting the velocity versus substrate concentration data to a rectangular hyperbola using GraphPad Prism software. Kcat values were determined from Vmax based on protein concentration in the reactions.

G. max ALS1 protein [2] = experiment: Substrate specificity ratio (Rf), pyruvate versus 2-ketobutyrate, LC-MS of reduced products; assay type: biochemical, Glycine max; conditions: ratio of [pyruvate] to [2-ketobutyrate] giving equal rates of acetolactate and acetohydroxybutyrate formation, 25 mM pyruvate
Source text: The “substrate specificity ratio”, or “Rf”, characterizes the specificity of the ALS enzyme for AHB formation relative to AL formation (Gollop et al. (1989) Biochemistry 28:6310-6317). Rf is the ratio of [pyruvate] to [2-ketobutyrate] that results in equal rates of formation of acetolactate and acetohydroxybutyrate. Rf is a constant at all substrate concentrations. The substrate specificity ratio is ˜114 for the wild type Glycine max ALS1 enzyme (SEQ ID NO:1) compared to ˜3 for the highly resistant allele (HRA) double mutant variant (SEQ ID NO: 10) of the Glycine max ALS1. The soybean HRA sequence is disclosed, for example, in WO2007/024782, herein incorporated by reference.
Substrate preference was determined using the assay described in Example 3; however, the assay was conducted using a constant concentration of pyruvate (25 mM) and varying concentrations of the second substrate, 2-ketobutyrate. Each reaction involving a specific ratio of pyruvate to 2-ketobutyrate, after a set period of time, was quenched by addition of sodium borohydride (7-fold excess) to form the reduced adducts of the products of the two substrates namely; reduced acetolactate for the reaction with pyruvate and reduced aceto hydroxybutyrate for the 2-ketobutyrate reaction. The relative amounts of the two reduced products was determined by first, chromatographic separation using a 4.6×250 mm dC18 column (Atlantis) equilibrated with a 0.1% formic acid solution and subsequent elution using a methanol gradient at 0.7 ml/min, followed by detection using a Thermo FINNIGAN® LTQ® Mass Spectrometer (MS). The products of the two reactions were quantified by integration of the MS signals. The % of the amount of each of the reduced products was then plotted versus the concentration of 2-ketobutyrate. As the 2-ketobutyrate amount increased there was a consequent increase in reduced acetohydroxybutyrate (AHB) and decrease in reduced acetolactate (AL). […] The substrate specificity ratio was ˜114 for the wild type enzyme compared to 3 for the highly resistant allele (HRA) double mutant ALS variant (SEQ ID NO: 10).

Molecule	Km (G. max ALS1 protein [1]) [mM]	kcat (G. max ALS1 protein [1]) [min⁻¹]	Substrate specificity ratio (Rf) (G. max ALS1 protein [2])	Substrate specificity ratio (Rf) (G. max ALS1 protein [2]; listed as HRA)
B1	15	90	2.9	3
B2	11	68	10.7	–
B3	21	63	114.0	–
B4	10	125	75.0	–
B5	5	88	12.0	–
B6	36	21	2.7	–
B7	5	65	119.0	–
B8	3.5	80	10.2	–
B9	3	163	86.0	–
B10	14.8	251	119.0	–
B11	8	105	16.9	–
B12	40	36	100.0	–
B13	6	190	100.0	–
B14	21	27	29.0	–
B15	1.6	69	104.0	–
B16	3	109	83.3	–
